2 molecules from PMC13388985 (Nature Communications, 2026) can be followed below.

The target in assay [1] is T1, GST-tagged wild-type Af1521 macrodomain (UniProt O28751 1-192).
T1 sequence: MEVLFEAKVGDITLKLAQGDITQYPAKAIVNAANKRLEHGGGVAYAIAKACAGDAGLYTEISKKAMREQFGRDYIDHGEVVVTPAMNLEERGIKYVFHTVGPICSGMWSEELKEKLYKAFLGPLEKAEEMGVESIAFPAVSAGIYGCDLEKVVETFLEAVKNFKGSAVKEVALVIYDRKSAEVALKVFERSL
In words: pull-down.

The target of assay [2] is T2, GST-tagged Af1521-K35E/Y145R macrodomain (UniProt O28751 1-192, K35E | Y145R).
T2 sequence: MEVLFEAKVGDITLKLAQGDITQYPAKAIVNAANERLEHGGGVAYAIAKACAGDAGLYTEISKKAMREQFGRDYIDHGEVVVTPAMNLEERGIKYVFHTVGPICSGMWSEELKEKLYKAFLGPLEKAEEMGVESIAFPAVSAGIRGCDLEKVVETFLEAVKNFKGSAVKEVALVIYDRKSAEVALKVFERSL
In words: pull-down.

No end group written: not given here.

For GWTAR(ADP‑ribose)KSAEAGTAGK-NH2 [Synthetic peptide GWTARKSAEAGTAGK-amide with ADPr on Arg-5], the binding result in assay [1] and in assay [2] was “binds” in each case.
As to GWTARKS(ADP‑ribose)AAAGTAGK-NH2 [Synthetic peptide GWTARKSAAAGTAGK-amide with ADPr on Ser-7], the binding result in assay [1] and in assay [2] was “binds” each time.
